Data reported in the array DNA melting data of Ke et al..

Test: melting temperature; melt of duplexes
Settings: sodium 0.0675 M; strand 1 µM

Which Tm does the source give for “CGACGTGCTTCATGTGCTG+CAGCACATGTGGCACGTCG ((((((((..(((((((((+)))))))))..))))))))” here?
The Tm was 54.8 °C.

Which Tm does the source give for “CGACGTGCTTCATGTGCTG+CAGCACATTACGCACGTCG ((((((((.(.((((((((+)))))))).).))))))))” here?
Its Tm is 47.8 °C.

For “CGACGTGCTTCATGTGCTG+CAGCACATTCAGCACGTCG (((((((((..((((((((+))))))))..)))))))))”, which Tm is on record?
The Tm was 50.7 °C.

Which Tm does the source give for “CGACGTGCTTCATGTGCTG+CAGCACATTCGGCACGTCG ((((((((...((((((((+))))))))...))))))))” here?
Its Tm is 48.1 °C.

With “CGACGTGCTTCATGTGCTG+CAGCACATTGCGCACGTCG ((((((((...((((((((+))))))))...))))))))” as the substance, how does the Tm read?
Its Tm is 46.5 °C.

For “CGACGTGCTTCATGTGCTG+CAGCACATTGTGCACGTCG ((((((((...((((((((+))))))))...))))))))”, which Tm is on record?
The Tm was 44.4 °C.

Which Tm does the source give for “CGACGTGCTTCATGTGCTG+CAGCACATTTGGCACGTCG ((((((((...((((((((+))))))))...))))))))” here?
The Tm was 48.6 °C.

Which Tm does the source give for “CGACGTGCTTGATGTGCTG+CAGCACATAAAGCACGTCG ((((((((((.((((((((+)))))))).))))))))))” here?
Its Tm is 57.7 °C.

Which Tm does the source give for “CGACGTGCTTGATGTGCTG+CAGCACATAAGGCACGTCG ((((((((.(.((((((((+)))))))).).))))))))” here?
The Tm was 52.3 °C.

With “CGACGTGCTTGATGTGCTG+CAGCACATACCGCACGTCG ((((((((...((((((((+))))))))...))))))))” as the substance, how does the Tm read?
The Tm was 48.4 °C.

With “CGACGTGCTTGATGTGCTG+CAGCACATACGGCACGTCG ((((((((...((((((((+))))))))...))))))))” as the substance, how does the Tm read?
Its Tm is 49.2 °C.

Which Tm does the source give for “CGACGTGCTTGATGTGCTG+CAGCACATACTGCACGTCG ((((((((...((((((((+))))))))...))))))))” here?
The Tm was 50.4 °C.

With “CGACGTGCTTGATGTGCTG+CAGCACATATGGCACGTCG ((((((((...((((((((+))))))))...))))))))” as the substance, how does the Tm read?
Its Tm is 51 °C.

For “CGACGTGCTTGATGTGCTG+CAGCACATCGCGCACGTCG ((((((((..(((((((((+)))))))))..))))))))”, which Tm is on record?
Its Tm is 54.3 °C.

With “CGACGTGCTTGATGTGCTG+CAGCACATCGGGCACGTCG ((((((((..(((((((((+)))))))))..))))))))” as the substance, how does the Tm read?
The Tm was 56.8 °C.

With “CGACGTGCTTGATGTGCTG+CAGCACATGAAGCACGTCG ((((((((((.((((((((+)))))))).))))))))))” as the substance, how does the Tm read?
The Tm was 56.6 °C.

With “CGACGTGCTTGATGTGCTG+CAGCACATGACGCACGTCG ((((((((.(.((((((((+)))))))).).))))))))” as the substance, how does the Tm read?
Its Tm is 46.5 °C.

For “CGACGTGCTTGATGTGCTG+CAGCACATGCCGCACGTCG ((((((((...((((((((+))))))))...))))))))”, which Tm is on record?
Its Tm is 47.8 °C.

With “CGACGTGCTTGATGTGCTG+CAGCACATGGGGCACGTCG ((((((((...((((((((+))))))))...))))))))” as the substance, how does the Tm read?
The Tm was 50.7 °C.

Which Tm does the source give for “CGACGTGCTTGATGTGCTG+CAGCACATGTAGCACGTCG (((((((((..((((((((+))))))))..)))))))))” here?
Its Tm is 51.7 °C.

With “CGACGTGCTTGATGTGCTG+CAGCACATTATGCACGTCG ((((((((.(.((((((((+)))))))).).))))))))” as the substance, how does the Tm read?
Its Tm is 51.9 °C.

With “CGACGTGCTTGATGTGCTG+CAGCACATTCAGCACGTCG (((((((((..((((((((+))))))))..)))))))))” as the substance, how does the Tm read?
The Tm was 51.9 °C.

Which Tm does the source give for “CGACGTGCTTGATGTGCTG+CAGCACATTGGGCACGTCG ((((((((...((((((((+))))))))...))))))))” here?
Its Tm is 50.7 °C.

Which Tm does the source give for “CGACGTGCTTGATGTGCTG+CAGCACATTTAGCACGTCG (((((((((..((((((((+))))))))..)))))))))” here?
Its Tm is 52.5 °C.

Which Tm does the source give for “CGACGTGCTTGATGTGCTG+CAGCACATTTCGCACGTCG ((((((((...((((((((+))))))))...))))))))” here?
Its Tm is 48.5 °C.

For “CGACGTGCTTGATGTGCTG+CAGCACATTTGGCACGTCG ((((((((...((((((((+))))))))...))))))))”, which Tm is on record?
Its Tm is 50.8 °C.

With “CGACGTGCTTTATGTGCTG+CAGCACATAAAGCACGTCG (((((((((((((((((((+)))))))))))))))))))” as the substance, how does the Tm read?
Its Tm is 61 °C.

For “CGACGTGCTTTATGTGCTG+CAGCACATAACGCACGTCG ((((((((.((((((((((+)))))))))).))))))))”, which Tm is on record?
The Tm was 53.6 °C.

For “CGACGTGCTTTATGTGCTG+CAGCACATAATGCACGTCG ((((((((.((((((((((+)))))))))).))))))))”, which Tm is on record?
The Tm was 55.1 °C.

Which Tm does the source give for “CGACGTGCTTTATGTGCTG+CAGCACATACTGCACGTCG ((((((((..(((((((((+)))))))))..))))))))” here?
The Tm was 50.3 °C.

For “CGACGTGCTTTATGTGCTG+CAGCACATATCGCACGTCG ((((((((..(((((((((+)))))))))..))))))))”, which Tm is on record?
Its Tm is 49.1 °C.

Which Tm does the source give for “CGACGTGCTTTATGTGCTG+CAGCACATATGGCACGTCG ((((((((..(((((((((+)))))))))..))))))))” here?
Its Tm is 51.6 °C.

Which Tm does the source give for “CGACGTGCTTTATGTGCTG+CAGCACATATTGCACGTCG ((((((((..(((((((((+)))))))))..))))))))” here?
Its Tm is 51.2 °C.

With “CGACGTGCTTTATGTGCTG+CAGCACATCACGCACGTCG ((((((((.(.((((((((+)))))))).).))))))))” as the substance, how does the Tm read?
The Tm was 47.9 °C.

With “CGACGTGCTTTATGTGCTG+CAGCACATCCAGCACGTCG (((((((((..((((((((+))))))))..)))))))))” as the substance, how does the Tm read?
Its Tm is 49.4 °C.

For “CGACGTGCTTTATGTGCTG+CAGCACATCCCGCACGTCG ((((((((...((((((((+))))))))...))))))))”, which Tm is on record?
Its Tm is 46.8 °C.

For “CGACGTGCTTTATGTGCTG+CAGCACATCGAGCACGTCG (((((((((..((((((((+))))))))..)))))))))”, which Tm is on record?
The Tm was 51.3 °C.
